Experimental data from publication PMC1807967.
Like-named read-outs stand apart in the source and are kept apart here.

T1: ttMutS2 (Thermus thermophilus, UniProt Q5SHT5 1-744)
T1 sequence: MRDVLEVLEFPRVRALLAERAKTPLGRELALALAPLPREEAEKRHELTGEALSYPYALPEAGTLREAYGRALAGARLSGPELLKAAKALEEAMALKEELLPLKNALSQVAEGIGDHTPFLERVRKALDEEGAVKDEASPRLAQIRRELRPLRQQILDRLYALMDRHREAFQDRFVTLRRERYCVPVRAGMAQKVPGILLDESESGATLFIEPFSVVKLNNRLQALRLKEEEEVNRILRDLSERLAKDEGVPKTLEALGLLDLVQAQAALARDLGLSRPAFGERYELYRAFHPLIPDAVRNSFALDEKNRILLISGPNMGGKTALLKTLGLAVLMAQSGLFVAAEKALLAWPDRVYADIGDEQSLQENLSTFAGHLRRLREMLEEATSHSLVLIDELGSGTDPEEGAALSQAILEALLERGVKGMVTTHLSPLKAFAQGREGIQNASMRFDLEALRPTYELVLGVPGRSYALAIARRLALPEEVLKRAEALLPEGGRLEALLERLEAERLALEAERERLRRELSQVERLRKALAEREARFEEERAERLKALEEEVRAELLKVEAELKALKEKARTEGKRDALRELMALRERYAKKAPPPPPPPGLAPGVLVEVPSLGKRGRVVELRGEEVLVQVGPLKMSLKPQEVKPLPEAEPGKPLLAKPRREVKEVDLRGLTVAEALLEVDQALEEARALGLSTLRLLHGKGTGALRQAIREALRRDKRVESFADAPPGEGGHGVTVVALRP

T2: N60-ttMutS2 (Smr-deleted) (Thermus thermophilus, UniProt Q5SHT5 1-540)
T2 sequence: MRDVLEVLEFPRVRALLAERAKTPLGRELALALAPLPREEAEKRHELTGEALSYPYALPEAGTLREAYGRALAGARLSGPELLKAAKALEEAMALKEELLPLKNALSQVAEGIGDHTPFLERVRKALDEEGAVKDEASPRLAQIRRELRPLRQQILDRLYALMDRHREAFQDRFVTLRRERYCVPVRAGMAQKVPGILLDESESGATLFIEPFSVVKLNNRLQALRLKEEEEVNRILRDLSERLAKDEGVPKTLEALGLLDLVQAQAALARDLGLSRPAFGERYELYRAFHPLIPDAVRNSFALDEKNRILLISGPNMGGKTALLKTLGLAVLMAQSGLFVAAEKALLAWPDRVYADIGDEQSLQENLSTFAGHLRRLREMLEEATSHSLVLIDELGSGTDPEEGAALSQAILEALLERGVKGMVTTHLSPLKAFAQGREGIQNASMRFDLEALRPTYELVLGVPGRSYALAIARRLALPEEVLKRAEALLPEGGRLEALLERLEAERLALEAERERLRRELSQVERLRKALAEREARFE

T3: ttSmr (Thermus thermophilus, UniProt Q5SHT5 621-744)
T3 sequence: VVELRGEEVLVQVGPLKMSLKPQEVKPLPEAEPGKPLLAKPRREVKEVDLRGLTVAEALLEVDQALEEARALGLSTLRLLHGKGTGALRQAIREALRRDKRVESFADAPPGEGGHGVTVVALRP


Experiments:
Assay in all cases: EMSA
ttMutS2 [1] = target: T1, ttMutS2
[2] = target: T2, N60-ttMutS2 (Smr-deleted)
[3] = target: T2, N60-ttMutS2 (Smr-deleted); remark: listed apart in the source
ttMutS2 [4] = target: T1, ttMutS2; remark: listed apart in the source
ttSmr = target: T3, ttSmr

Binder | binding result (ttMutS2 [1]) | binding result [2] | binding result [3] | binding result (ttMutS2 [4]) | binding result (ttSmr)
20 bp dsDNA (dsDNA) DNA 1: ATGTGAATCAGTATGGTTTC DNA 2: GAAACCATACTGATTCACAT | binds | binds |  |  | 
ATGTGAATCAGTATGGTTTC (ssDNA) [20mer ssDNA] |  |  | no binding | no binding | binds
